Laboratory results reported in patent US20240067734A1 (Hoffmann-La Roche, published 2024).

Biological target: T1, di cyNKG2D ECD Fc avi (cynomolgus, biotinylated at the avi-tag)
T1 construct: Dimeric fusion of cynomolgus NKG2D ECD to the C-terminus of an avi-tagged human IgG1 Fc; also called recombinant cynomolgus NKG2D
Experiment: SPR Biacore; IgG captured by anti-Fab, antigen analyte; TraceDrawer fit
Protocol: Around 1500 resonance units (RU) of the capture antibody (10 μg/ml human Fab Capture Kit, GE Healthcare Life Sciences, #28958325) were coupled onto a CM5 chip (GE Healthcare, #BR-1005-30) using a BIACORE® B4000 instrument (GE Healthcare) at pH 5.0 by using an amine coupling kit supplied by GE Healthcare. The sample and system buffer was PBS-T (10 mM phosphate buffered saline including 0.05% TWEEN® (polysorbate) 20) pH 7.4. The flow cells were set to 25° C.—and the sample block set to 12° C.—and primed twice with running buffer. The antibody was captured by injecting a ˜10 μg/ml solution for 60 sec at a flow rate of 10 μl/min. Association was measured by injection of di huNKG2D ECD Fc avi (SEQ ID NO: 96) or di cyNKG2D ECD Fc avi (SEQ ID NO: 97) in various concentrations in solution for 180 s at a flow rate of 30 μl/min starting with 600 nM, 300 nM, 150 nM following […] dilutions. The dissociation phase was monitored for up to 450 s and triggered by switching from the sample solution to running buffer. The surface was regenerated by 2×90 s washing with a glycine pH 2.1 solution at a flow rate of 30 μl/min and an additional stabilization period of 180 s. Bulk refractive index differences were corrected by subtracting the response obtained from an anti-human Fab surface. Blank injections were also subtracted (=double referencing). For calculation of KD, kₐ and kd (see Table 8), the Langmuir 1:1 model in the BIACORE® 4000 Evaluation software 1.1 (GE Healthcare) or TraceDrawer 1.6.1 (Ridgeview Instruments AB) were used.

T1 sequence (chain, as listed by the source limits assumed): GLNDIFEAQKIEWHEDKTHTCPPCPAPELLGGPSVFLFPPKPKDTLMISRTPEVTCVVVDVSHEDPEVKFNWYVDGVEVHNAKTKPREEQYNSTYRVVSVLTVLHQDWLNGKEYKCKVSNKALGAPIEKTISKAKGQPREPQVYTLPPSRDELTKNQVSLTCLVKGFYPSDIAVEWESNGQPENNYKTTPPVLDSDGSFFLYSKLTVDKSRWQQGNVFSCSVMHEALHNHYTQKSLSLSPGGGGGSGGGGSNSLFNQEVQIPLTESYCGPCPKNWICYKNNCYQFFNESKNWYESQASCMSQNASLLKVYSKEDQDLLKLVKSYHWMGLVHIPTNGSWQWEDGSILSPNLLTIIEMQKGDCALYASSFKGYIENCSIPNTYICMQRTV

- Kd: 710 nM
- koff: 0.09 s⁻¹
- kon: 130000 M⁻¹ s⁻¹
B1: anti-NKG2D antibody clone 296 (antibody, V domains shown)
VH: EVQLLESGGGLVQPGGSLRLSCAASGFTFSSYAMSWVRQAPGKGLEWVSAIGIGGGGTYYADSVKGRFTISRDNSKNTLYLQMNSLRAEDTAVYHCAKGASFDFINFFPYWGQGTLVTVSS
VL: DIQMTQSPSSLSASVGDRVTITCRASQGISNDLAWYQQKPGKAPKLLIYAASSLQSGVPSRFSGSGSGTDFTLTISSLQPEDFATYYCQQTYSTPLTFGGGTKVEIK
notes: From transgenic rabbits
